The values below come from patent publication EP4722247A1 (Oricell Therapeutics Co., Ltd., dated 2026).

In experiment [1] the target is T1, Human CD39-His protein (CD9-H52H4, ACRO Biosystems) (human, UniProt P49961 38-478).
T1 construct: Purchased protein; also called human CD39-His antigen; human CD39 protein; not shown: His tag
T1 sequence (looked up): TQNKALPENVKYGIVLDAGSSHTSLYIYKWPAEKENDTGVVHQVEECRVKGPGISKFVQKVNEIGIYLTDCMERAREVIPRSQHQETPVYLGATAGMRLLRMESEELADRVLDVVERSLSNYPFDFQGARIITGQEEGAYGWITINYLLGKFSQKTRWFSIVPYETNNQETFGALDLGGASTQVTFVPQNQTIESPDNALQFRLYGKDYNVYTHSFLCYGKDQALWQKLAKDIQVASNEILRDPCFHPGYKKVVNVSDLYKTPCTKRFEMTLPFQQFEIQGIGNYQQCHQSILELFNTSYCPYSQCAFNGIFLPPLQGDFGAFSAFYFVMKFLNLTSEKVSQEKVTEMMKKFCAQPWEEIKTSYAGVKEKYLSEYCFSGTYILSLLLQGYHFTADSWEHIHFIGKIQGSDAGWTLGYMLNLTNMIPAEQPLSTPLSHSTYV
Description: BLI (Fortebio), antibody on AHC probe, human CD39-His in solution. Background: BLI is a label-free optical method that tracks binding on a fibre tip over time.

The target in experiment [2] is T1, Human CD39-His protein (CD9-H52H4, ACRO …). The experiment is described as above. This is another data set of the same source.

Where two headings read alike, the source gives them in different places.

B1: control antibody H5L5 (Patent CN112714768A) (antibody, V domains shown)
VH: QVQLVQSGAEVKKPGASVKVSCKASGYNLKDTFLHWVRQAPGQGLEWMGRIDPANGNIKYDPKFQGRVTITADTSANTAYMELISLRSEDTAVYYCANSPYYYGSGYRIFDVWGQGTTVTVSS
VL: QIVLTQSPATLSLSPGERATLSCSAFSSVNYMHWYQQKPGQAPRLLIYTTSNLASGIPTRFSGSGSGTSYTLTISSLEPEDFAVYYCQQRSTYPFTFGQGTKLEIKR
notes: Anti-CD39 control antibody; also called H5L5 control antibody
In experiment [1], B1 came in with a Kd of 1.28 nM, a koff of 0.000408 s⁻¹ and a kon of 320000 M⁻¹ s⁻¹. In addition, in experiment [2], the Kd turned out to be 0.802 nM, the koff was determined as 0.000168 s⁻¹ and the kon was 210000 M⁻¹ s⁻¹.

One may read the Kd as the free concentration of one partner at which half of the binding sites on the other are occupied at equilibrium, for simple one-to-one binding. A word on the koff: it is a measure of how fast the partners let go of each other. In general, kon refers to the rate constant with which the complex forms.
